Results: paper PMC5526873, “Tonoplast-localized nitrate uptake transporters involved in vacuolar nitrate efflux and reallocation in Arabidopsis” (Scientific Reports, 2017)

T1: CHL1 (Arabidopsis thaliana, UniProt Q05085)
T1 construct: gene NPF6.3; cRNA-injected Xenopus laevis oocytes, positive control
T1 sequence (Q05085 1-590): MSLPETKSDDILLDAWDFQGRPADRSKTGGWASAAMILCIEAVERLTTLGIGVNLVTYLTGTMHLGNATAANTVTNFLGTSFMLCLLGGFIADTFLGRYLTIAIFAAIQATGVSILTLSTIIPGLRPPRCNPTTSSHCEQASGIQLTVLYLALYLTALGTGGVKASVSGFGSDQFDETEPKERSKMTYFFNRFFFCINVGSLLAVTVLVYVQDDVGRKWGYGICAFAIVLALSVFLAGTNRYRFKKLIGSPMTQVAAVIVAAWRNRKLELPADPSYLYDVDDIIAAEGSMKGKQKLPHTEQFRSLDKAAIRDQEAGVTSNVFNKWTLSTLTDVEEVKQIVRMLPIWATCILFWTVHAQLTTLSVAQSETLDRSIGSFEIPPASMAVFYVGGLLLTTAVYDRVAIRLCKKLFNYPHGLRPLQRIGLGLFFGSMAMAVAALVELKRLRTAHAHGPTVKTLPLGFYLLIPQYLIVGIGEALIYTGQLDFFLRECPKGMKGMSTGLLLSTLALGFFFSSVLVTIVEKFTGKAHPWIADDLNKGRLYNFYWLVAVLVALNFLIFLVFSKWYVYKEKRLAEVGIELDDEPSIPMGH

B1: NPF5.11 (Arabidopsis thaliana) (protein)
chain: MAITYSSADELGNTTEGFLEIRENTSGGWKSARLIIVVQMAERFAYFGIASNLIMYLTGPLGESTAAAAANVNAWTGTVAFLPLLGGFLADSYLGRFRTIIISSSLYILGLGLLSFSTMIPSHQSKDSNQLQETIFFFSLYLVAIGQGGYNPCIKVFGADQFDGNDHKEARDKSSFFNWLMFGNCISILTTRLVSTYIQENLSWSLGFGIPSVSMLLSLFLFLLGTTSYRFSTERVGKKNPFARISRVFMEALKNRRQPDLDIANANANETLLLLAHQSSKQFRFLDRAAISCELAEIEEAKAVLRLIPIWITSVVYTIVHAQSPTFFTKQGATMDRSISPGLLVPAATLQSFINLSVVVFIPIYDRLLVPFARSFTQNSSGITTLQRIGTGIFLSILAMVLAALVETKRLQAARDELSIPMSVWWLIPQYVIFGVSDMFTMVGLQEFFYGQVPSELRSVGMALNLSIYGAGNYLSSFMISVIDKITNQYGQRSWFDNDLDQAHLDYFYWLLACLGFIGFAFYLWFAKSYVYSRSNTF
notes: cDNA in oocyte vector pOO2, cRNA-injected Xenopus laevis oocytes; EYFP fusion used for localization
B2: NPF5.12 (Arabidopsis thaliana) (protein)
chain: MSTSIGDNETGAIVSNENVEFSVDFRGNPSIRSSSGAWKSSGFTMCAEVAEKFAYFGIASNLITYFTEALGESTAVAASNVNLWLGTAAFLPLIWGSIADSFLGRFRTILLTSSFYIMGLGLLTFSATIPSLCNDQETRESCVSQVKVIIFFCALYLIALGEGGFKVCLRAFGADQFDEQDPNESKAKSSYFNWLYFAISIGILTTRLVTNYVQENLSWALGYAIPCLSMMLALFLFLLGIKTYRFSTGGEGRQGKKHDNPFVRIGRVFVAAARNRRQTPSDTCLLLPNESTKKFRFLDRAVISCDSYEVEEAKAVLSLIPIWLCSLVFGIVFAQSPTFFTKQGSTMDRSISSTLQVPAATLQCFISLAILVFIPIYDRLFVPIARSITRKPAGITTLQRISTGIFLSIISMVIAALVEMKRLKTARDHGLVDSPKATVPMSVCWLIPQYILFGVSDVFTMVGLQEFFYGEVPPQLRSMGLALYLSIIGIGNFLSSFMVSVIEEATSQSGQVSWFSNNLNQAHLDYFYWLLACLSSLAFIFTVYFAKSYLYNSPK
notes: as for B1
B3: NPF5.16 (Arabidopsis thaliana) (protein)
chain: MAIAEEEAALIEDSVSDSVDHRGLPAGKSSTGGWRSAWYIIGVEVGERFAYFGIGSNLITYLTGPLGQSTATAAVNVNTWSGTASILPVLGAFIADAYLGRYRTIVVASLIYILGLGLLTLSSILILMGLSEQRQHNRNASAKPFFWVNILFFCSLYLVAIGQGGHKPCVQAFGADQFDVGDPKERISRGSFFNWWFLSLSAGITLSIIVVVYVQDNVNWALGFGIPCLFMVMALALFLFGRKTYRYPRGDREGKNNAFARIGRVFLVAFKNRKLKLTHSGQLEVGSYKKCKGQLEFLAKALLPGEGGVEPCSSRDVEDAMALVRLIPIWITSVVSTIPYAQYATFFTKQGVTVDRKILPGFEIPPASFQALIGLSIFISVPTYERVFLPLARLITKKPSGITMLQRIGAGMVLSSLNMVVAALVEMKRLETAKEHGLVDRPDATIPMSIWWFVPQYLLLGMIDVFSLVGTQEFFYDQVPTELRSIGLALSLSAMGLASFLSGFLITVINWATGKNGGDSWFNTNLNRAHVDYFYWLLAAFTAIGFLAFLLLSRLYVYRRVDQV
notes: as for B1

Assays:
[1] = target: T1, CHL1; test: […]-nitrate uptake in cRNA-injected Xenopus oocytes, mass spectrometry; assay type: cell-based; conditions: pH 5.5, 0.25 mM 15N-nitrate, 12 h; positive control; labelled compound (15N)
[2] = substrate: O=[N+]([O-])O; test: cells, lysate or membranes; assay type: cell-based, Arabidopsis thaliana; conditions: pH 5.5, 1.5 h, 0.25-30 mM, labelled compound (15N)

Molecule | 15N-nitrate uptake in cRNA-injected Xenopus oocytes, mass spectrometry [1] | Km [2] [µM]
O=[N+]([O-])O [nitrate] | CHL1-injected oocytes still showed high uptake activity | 
B1 |  | 2570
B2 |  | 4840
B3 |  | 2910
